Measured values taken from patent US20260209386A1 (MYTHIC THERAPEUTICS, published 2026).

B1: MYT11036 (antibody, V domains shown)
VH: EVQLVESGGGLVQPGGSLRLSCTASGLSLSSYWMHWVRQAPGKGLEWVGVISAGGNTYYANWAKGRFTISRDTSKNTVYLQMNSLRAEDTAVYFCARGDDGYTNAAYVSNLWGQGTLVTVSS
VL: EIVMTQSPSTLSASVGDRVIITCQASQSISSWLSWYQQKPGKAPKLLIYKASTLASGVPSRFSGSGSGAEFTLTISSLQPDDFATYYCQSYFDSTTIAFGQGTKLTVL
notes: MYT9361 HC variant
B2: MYT11051 (antibody, V domains shown)
VH: EVQLVESGGGLVQPGGSLRLSCTASGLSLSSYWMSWVRQAPGKGLEWVGVISAGGNTYYANWAHGRFTISRDTSKNTVYLQMNSLRAEDTAVYFCARGDDGYTNAAYVSNLWGQGTLVTVSS
VL: EIVMTQSPSTLSASVGDRVIITCQASQSISSWLSWYQQKPGKAPKLLIYKASTLASGVPSRFSGSGSGAEFTLTISSLQPDDFATYYCQSYFDSTTIAFGQGTKLTVL
notes: MYT9361 HC variant
B3: MYT11052 (antibody, V domains shown)
VH: EVQLVESGGGLVQPGGSLRLSCTASGLSLSSYWMSWVRQAPGKGLEWVGVISAGGNTYYANWAKHRFTISRDTSKNTVYLQMNSLRAEDTAVYFCARGDDGYTNAAYVSNLWGQGTLVTVSS
VL: EIVMTQSPSTLSASVGDRVIITCQASQSISSWLSWYQQKPGKAPKLLIYKASTLASGVPSRFSGSGSGAEFTLTISSLQPDDFATYYCQSYFDSTTIAFGQGTKLTVL
notes: MYT9361 HC variant
B4: MYT11043 (antibody, V domains shown)
VH: EVQLVESGGGLVQPGGSLRLSCTASGLSLSSYWMSWVRQAPGKGLEWVGVISAGGHTYYANWAKGRFTISRDTSKNTVYLQMNSLRAEDTAVYFCARGDDGYTNAAYVSNLWGQGTLVTVSS
VL: EIVMTQSPSTLSASVGDRVIITCQASQSISSWLSWYQQKPGKAPKLLIYKASTLASGVPSRFSGSGSGAEFTLTISSLQPDDFATYYCQSYFDSTTIAFGQGTKLTVL
notes: MYT9361 HC variant
B5: MYT11050 (antibody, V domains shown)
VH: EVQLVESGGGLVQPGGSLRLSCTASGLSLSSYWMSWVRQAPGKGLEWVGVISAGGNTYYANWHKGRFTISRDTSKNTVYLQMNSLRAEDTAVYFCARGDDGYTNAAYVSNLWGQGTLVTVSS
VL: EIVMTQSPSTLSASVGDRVIITCQASQSISSWLSWYQQKPGKAPKLLIYKASTLASGVPSRFSGSGSGAEFTLTISSLQPDDFATYYCQSYFDSTTIAFGQGTKLTVL
notes: MYT9361 HC variant
B6: MYT11048 (antibody, V domains shown)
VH: EVQLVESGGGLVQPGGSLRLSCTASGLSLSSYWMSWVRQAPGKGLEWVGVISAGGNTYYAHWAKGRFTISRDTSKNTVYLQMNSLRAEDTAVYFCARGDDGYTNAAYVSNLWGQGTLVTVSS
VL: EIVMTQSPSTLSASVGDRVIITCQASQSISSWLSWYQQKPGKAPKLLIYKASTLASGVPSRFSGSGSGAEFTLTISSLQPDDFATYYCQSYFDSTTIAFGQGTKLTVL
notes: MYT9361 HC variant
B7: MYT11040 (antibody, V domains shown)
VH: EVQLVESGGGLVQPGGSLRLSCTASGLSLSSYWMSWVRQAPGKGLEWVGVISHGGNTYYANWAKGRFTISRDTSKNTVYLQMNSLRAEDTAVYFCARGDDGYTNAAYVSNLWGQGTLVTVSS
VL: EIVMTQSPSTLSASVGDRVIITCQASQSISSWLSWYQQKPGKAPKLLIYKASTLASGVPSRFSGSGSGAEFTLTISSLQPDDFATYYCQSYFDSTTIAFGQGTKLTVL
notes: MYT9361 HC variant
B8: MYT11039 (antibody, V domains shown)
VH: EVQLVESGGGLVQPGGSLRLSCTASGLSLSSYWMSWVRQAPGKGLEWVGVIHAGGNTYYANWAKGRFTISRDTSKNTVYLQMNSLRAEDTAVYFCARGDDGYTNAAYVSNLWGQGTLVTVSS
VL: EIVMTQSPSTLSASVGDRVIITCQASQSISSWLSWYQQKPGKAPKLLIYKASTLASGVPSRFSGSGSGAEFTLTISSLQPDDFATYYCQSYFDSTTIAFGQGTKLTVL
notes: MYT9361 HC variant
B9: MYT11046 (antibody, V domains shown)
VH: EVQLVESGGGLVQPGGSLRLSCTASGLSLSSYWMSWVRQAPGKGLEWVGVISAGGNTYHANWAKGRFTISRDTSKNTVYLQMNSLRAEDTAVYFCARGDDGYTNAAYVSNLWGQGTLVTVSS
VL: EIVMTQSPSTLSASVGDRVIITCQASQSISSWLSWYQQKPGKAPKLLIYKASTLASGVPSRFSGSGSGAEFTLTISSLQPDDFATYYCQSYFDSTTIAFGQGTKLTVL
notes: MYT9361 HC variant
B10: MYT11054 (antibody, V domains shown)
VH: EVQLVESGGGLVQPGGSLRLSCTASGLSLSSYWMSWVRQAPGKGLEWVGVISAGGNTYYANWAKGRFTISRDTSKNTVYLQMNSLRAEDTAVYFCAHGDDGYTNAAYVSNLWGQGTLVTVSS
VL: EIVMTQSPSTLSASVGDRVIITCQASQSISSWLSWYQQKPGKAPKLLIYKASTLASGVPSRFSGSGSGAEFTLTISSLQPDDFATYYCQSYFDSTTIAFGQGTKLTVL
B11: MYT11049 (antibody, V domains shown)
VH: EVQLVESGGGLVQPGGSLRLSCTASGLSLSSYWMSWVRQAPGKGLEWVGVISAGGNTYYANHAKGRFTISRDTSKNTVYLQMNSLRAEDTAVYFCARGDDGYTNAAYVSNLWGQGTLVTVSS
VL: EIVMTQSPSTLSASVGDRVIITCQASQSISSWLSWYQQKPGKAPKLLIYKASTLASGVPSRFSGSGSGAEFTLTISSLQPDDFATYYCQSYFDSTTIAFGQGTKLTVL
notes: MYT9361 HC variant
B12: MYT11055 (antibody, V domains shown)
VH: EVQLVESGGGLVQPGGSLRLSCTASGLSLSSYWMSWVRQAPGKGLEWVGVISAGGNTYYANWAKGRFTISRDTSKNTVYLQMNSLRAEDTAVYFCARHDDGYTNAAYVSNLWGQGTLVTVSS
VL: EIVMTQSPSTLSASVGDRVIITCQASQSISSWLSWYQQKPGKAPKLLIYKASTLASGVPSRFSGSGSGAEFTLTISSLQPDDFATYYCQSYFDSTTIAFGQGTKLTVL
notes: MYT9361 HC variant
B13: MYT11045 (antibody, V domains shown)
VH: EVQLVESGGGLVQPGGSLRLSCTASGLSLSSYWMSWVRQAPGKGLEWVGVISAGGNTHYANWAKGRFTISRDTSKNTVYLQMNSLRAEDTAVYFCARGDDGYTNAAYVSNLWGQGTLVTVSS
VL: EIVMTQSPSTLSASVGDRVIITCQASQSISSWLSWYQQKPGKAPKLLIYKASTLASGVPSRFSGSGSGAEFTLTISSLQPDDFATYYCQSYFDSTTIAFGQGTKLTVL
notes: MYT9361 HC variant
B14: MYT11042 (antibody, V domains shown)
VH: EVQLVESGGGLVQPGGSLRLSCTASGLSLSSYWMSWVRQAPGKGLEWVGVISAGHNTYYANWAKGRFTISRDTSKNTVYLQMNSLRAEDTAVYFCARGDDGYTNAAYVSNLWGQGTLVTVSS
VL: EIVMTQSPSTLSASVGDRVIITCQASQSISSWLSWYQQKPGKAPKLLIYKASTLASGVPSRFSGSGSGAEFTLTISSLQPDDFATYYCQSYFDSTTIAFGQGTKLTVL
notes: MYT9361 HC variant
B15: MYT11037 (antibody, V domains shown)
VH: EVQLVESGGGLVQPGGSLRLSCTASGLSLSSYWMSWVRQAPGKGLEWVGHISAGGNTYYANWAKGRFTISRDTSKNTVYLQMNSLRAEDTAVYFCARGDDGYTNAAYVSNLWGQGTLVTVSS
VL: EIVMTQSPSTLSASVGDRVIITCQASQSISSWLSWYQQKPGKAPKLLIYKASTLASGVPSRFSGSGSGAEFTLTISSLQPDDFATYYCQSYFDSTTIAFGQGTKLTVL
notes: MYT9361 HC variant
B16: MYT11041 (antibody, V domains shown)
VH: EVQLVESGGGLVQPGGSLRLSCTASGLSLSSYWMSWVRQAPGKGLEWVGVISAHGNTYYANWAKGRFTISRDTSKNTVYLQMNSLRAEDTAVYFCARGDDGYTNAAYVSNLWGQGTLVTVSS
VL: EIVMTQSPSTLSASVGDRVIITCQASQSISSWLSWYQQKPGKAPKLLIYKASTLASGVPSRFSGSGSGAEFTLTISSLQPDDFATYYCQSYFDSTTIAFGQGTKLTVL
notes: MYT9361 HC variant
B17: MYT11044 (antibody, V domains shown)
VH: EVQLVESGGGLVQPGGSLRLSCTASGLSLSSYWMSWVRQAPGKGLEWVGVISAGGNHYYANWAKGRFTISRDTSKNTVYLQMNSLRAEDTAVYFCARGDDGYTNAAYVSNLWGQGTLVTVSS
VL: EIVMTQSPSTLSASVGDRVIITCQASQSISSWLSWYQQKPGKAPKLLIYKASTLASGVPSRFSGSGSGAEFTLTISSLQPDDFATYYCQSYFDSTTIAFGQGTKLTVL
notes: MYT9361 HC variant
B18: MYT11047 (antibody, V domains shown)
VH: EVQLVESGGGLVQPGGSLRLSCTASGLSLSSYWMSWVRQAPGKGLEWVGVISAGGNTYYHNWAKGRFTISRDTSKNTVYLQMNSLRAEDTAVYFCARGDDGYTNAAYVSNLWGQGTLVTVSS
VL: EIVMTQSPSTLSASVGDRVIITCQASQSISSWLSWYQQKPGKAPKLLIYKASTLASGVPSRFSGSGSGAEFTLTISSLQPDDFATYYCQSYFDSTTIAFGQGTKLTVL
notes: MYT9361 HC variant
B19: MYT11038 (antibody, V domains shown)
VH: EVQLVESGGGLVQPGGSLRLSCTASGLSLSSYWMSWVRQAPGKGLEWVGVHSAGGNTYYANWAKGRFTISRDTSKNTVYLQMNSLRAEDTAVYFCARGDDGYTNAAYVSNLWGQGTLVTVSS
VL: EIVMTQSPSTLSASVGDRVIITCQASQSISSWLSWYQQKPGKAPKLLIYKASTLASGVPSRFSGSGSGAEFTLTISSLQPDDFATYYCQSYFDSTTIAFGQGTKLTVL
notes: MYT9361 HC variant

Biological target: T1, Human PTK7 Protein, His Tag (Acro Biosystems) (human, UniProt Q13308 31-704)
T1 construct: Bought His-tagged protein; also called CCK4; not shown: His tag
T1 sequence: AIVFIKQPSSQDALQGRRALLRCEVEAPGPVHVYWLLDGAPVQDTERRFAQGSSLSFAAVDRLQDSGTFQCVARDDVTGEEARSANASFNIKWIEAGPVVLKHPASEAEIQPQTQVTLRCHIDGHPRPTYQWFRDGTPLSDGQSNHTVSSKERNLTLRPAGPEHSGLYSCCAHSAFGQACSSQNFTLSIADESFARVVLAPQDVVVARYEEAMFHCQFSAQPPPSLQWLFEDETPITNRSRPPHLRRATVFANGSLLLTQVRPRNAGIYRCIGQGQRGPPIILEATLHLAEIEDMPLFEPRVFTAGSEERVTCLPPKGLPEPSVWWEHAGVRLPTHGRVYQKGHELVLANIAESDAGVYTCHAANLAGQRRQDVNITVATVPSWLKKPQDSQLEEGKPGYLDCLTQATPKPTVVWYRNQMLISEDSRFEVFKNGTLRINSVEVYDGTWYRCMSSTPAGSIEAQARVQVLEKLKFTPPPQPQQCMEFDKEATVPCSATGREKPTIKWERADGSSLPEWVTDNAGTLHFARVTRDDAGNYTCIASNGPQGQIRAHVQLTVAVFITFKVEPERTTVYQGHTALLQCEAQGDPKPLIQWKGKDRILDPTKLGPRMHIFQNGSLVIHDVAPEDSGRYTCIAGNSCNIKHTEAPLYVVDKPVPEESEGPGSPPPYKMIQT
Test: BLI (Octet), antibody on anti-human Fc sensor, 50 nM PTK7; grade 2 = substantially similar binding relative to parent

Binding result, binds:
B1
B2
B3
B4
B5
B6
B7
B8
B9
B10
B11
B12
B13
B14
B15
B16
B17
B18
B19
